The values that follow come from PMC4745738.

The assay concerns the target TRAIL-R.

For “TNF-related apoptosis-inducing ligand (TRAIL) (from UniProt P50591 1-281)”, the inhibition of specific lysis of Nalm6 cells by pDC-activated NK cells (5:1 E:T ratio) with a blocking anti-TRAIL antibody is 50% and the inhibition of specific lysis of REH cells by pDC-activated NK cells (5:1 E:T ratio) with a blocking anti-TRAIL antibody stood at 66%.
